In paper PMC6555819, “Comprehensive study of nuclear receptor DNA binding provides a revised framework for understanding receptor specificity”:

Target: RARa:RXRa (Homo sapiens, UniProt P10276;P19793 full;full)
Test: no ligand; PBM; 270 nM : 90 nM RXRa; PBS pH 7.4, 2% milk, 0.02% Triton X-100, 1 mM DTT, BSA, 0.4 mg/ml salmon testes DNA
Details: tags: His kept;His cleaved; copies: 1;1; label: surface-attached array probe
In short: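 Scanned fluorescence from custom Agilent 4×180K protein-binding microarrays was regression-normalized. Binding z-scores use random background probes as reference. Ligand-free nuclear receptor dimers were incubated on the arrays for 1 h and detected with antibodies against each partner (one per run).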

RARa:RXRa, sequence (P10276 whole entry, chain 1 of 2): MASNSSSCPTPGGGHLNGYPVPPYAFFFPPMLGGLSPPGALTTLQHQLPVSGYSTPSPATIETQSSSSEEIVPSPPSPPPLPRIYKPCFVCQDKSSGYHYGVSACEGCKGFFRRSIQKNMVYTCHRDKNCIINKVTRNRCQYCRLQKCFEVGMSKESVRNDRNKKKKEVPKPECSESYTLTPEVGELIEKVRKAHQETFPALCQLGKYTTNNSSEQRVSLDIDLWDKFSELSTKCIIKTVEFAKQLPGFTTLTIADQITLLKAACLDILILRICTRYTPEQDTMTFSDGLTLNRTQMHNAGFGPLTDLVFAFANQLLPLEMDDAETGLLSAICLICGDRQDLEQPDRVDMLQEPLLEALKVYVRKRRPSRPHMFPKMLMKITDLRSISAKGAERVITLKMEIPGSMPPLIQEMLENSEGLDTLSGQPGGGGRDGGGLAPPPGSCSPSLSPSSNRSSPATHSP
RARa:RXRa, sequence (P19793 whole entry, chain 2 of 2): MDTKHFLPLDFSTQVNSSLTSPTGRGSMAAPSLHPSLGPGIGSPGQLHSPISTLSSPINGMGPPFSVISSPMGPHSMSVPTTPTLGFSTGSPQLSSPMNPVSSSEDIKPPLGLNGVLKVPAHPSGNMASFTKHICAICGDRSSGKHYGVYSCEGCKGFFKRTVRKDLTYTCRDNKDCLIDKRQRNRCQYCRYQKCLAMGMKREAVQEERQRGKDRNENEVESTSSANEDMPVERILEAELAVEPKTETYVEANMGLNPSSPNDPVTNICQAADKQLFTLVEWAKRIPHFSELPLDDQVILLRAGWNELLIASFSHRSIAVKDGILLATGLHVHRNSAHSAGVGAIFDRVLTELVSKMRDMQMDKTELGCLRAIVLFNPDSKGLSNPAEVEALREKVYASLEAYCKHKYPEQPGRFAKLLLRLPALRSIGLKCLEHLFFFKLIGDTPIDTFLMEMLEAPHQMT

Row | Binder | binding signal
1 | NRC3_wobSeed17_DR0_A24T_o1 (dsDNA) DNA 1: GCATATGTAGGTTAGGGTCATTCTGAAAGTAGGGAAGCGATTGACAGCGTAGAATGAAGG DNA 2: CCTTCATTCTACGCTGTCAATCGCTTCCCTACTTTCAGAATGACCCTAACCTACATATGC | 4.56 PBM z-score against 500 random probes
2 | NRC3_wobSeed30_DR1_G7A_o1 (dsDNA) DNA 1: GCACTAACAGGCCAAGGGTCACTCAAGATTAGTCCGGCGATTGACAGCGTAGAATGAAGG DNA 2: CCTTCATTCTACGCTGTCAATCGCCGGACTAATCTTGAGTGACCCTTGGCCTGTTAGTGC | 4.53 PBM z-score against 500 random probes
3 | NRC3_wobSeed13_DR0_C19G_o1 (dsDNA) DNA 1: GCCGTCCAAGGTCAAGGTGAGTGAAAGAGACTCGAAGCGATTGACAGCGTAGAATGAAGG DNA 2: CCTTCATTCTACGCTGTCAATCGCTTCGAGTCTCTTTCACTCACCTTGACCTTGGACGGC | 4.49 PBM z-score against 500 random probes
4 | NRC3_wobSeed28_DR1_T22G_o1 (dsDNA) DNA 1: GCCCTACTGGGCCAAAGGTCAGTGATTCCAATGCTCGCGATTGACAGCGTAGAATGAAGG DNA 2: CCTTCATTCTACGCTGTCAATCGCGAGCATTGGAATCACTGACCTTTGGCCCAGTAGGGC | 4.44 PBM z-score against 500 random probes
5 | NRC3_wobSeed74_DR3_C13T_o1 (dsDNA) DNA 1: GCTCTAGTTGGTTACGGAGGTCACACACGACGGGTAGCGATTGACAGCGTAGAATGAAGG DNA 2: CCTTCATTCTACGCTGTCAATCGCTACCCGTCGTGTGTGACCTCCGTAACCAACTAGAGC | 4.41 PBM z-score against 500 random probes
6 | NRC3_wobSeed5_DR0_G23T_o1 (dsDNA) DNA 1: GCCCTTACGGGTCAAGGTTATATCACGGGTGGTACGGCGATTGACAGCGTAGAATGAAGG DNA 2: CCTTCATTCTACGCTGTCAATCGCCGTACCACCCGTGATATAACCTTGACCCGTAAGGGC | 4.39 PBM z-score against 500 random probes
7 | NRC3_wobSeed99_DR4_G27A_o1 (dsDNA) DNA 1: GCTCTCGGAGGACACGAAAGGTCAGAACTCGACATCGCGATTGACAGCGTAGAATGAAGG DNA 2: CCTTCATTCTACGCTGTCAATCGCGATGTCGAGTTCTGACCTTTCGTGTCCTCCGAGAGC | 4.35 PBM z-score against 500 random probes
8 | NRC3_wobSeed9_DR0_T17G_o1 (dsDNA) DNA 1: GCATCTCTAGGTAAAGGTCAGTGAAAGATCGATAGAGCGATTGACAGCGTAGAATGAAGG DNA 2: CCTTCATTCTACGCTGTCAATCGCTCTATCGATCTTTCACTGACCTTTACCTAGAGATGC | 4.31 PBM z-score against 500 random probes
9 | NRC3_wobSeed117_DR4_G26T_o1 (dsDNA) DNA 1: GCCGTCAAAGTTCAACTAAGGTAACTTAAAGCACGCGCGATTGACAGCGTAGAATGAAGG DNA 2: CCTTCATTCTACGCTGTCAATCGCGCGTGCTTTAAGTTACCTTAGTTGAACTTTGACGGC | 4.28 PBM z-score against 500 random probes
10 | NRC3_wobSeed138_DR5_T5C_o1 (dsDNA) DNA 1: GCGACACAGGGTCAGCTAGAGGCCAGAGTATGGAAAGCGATTGACAGCGTAGAATGAAGG DNA 2: CCTTCATTCTACGCTGTCAATCGCTTTCCATACTCTGGCCTCTAGCTGACCCTGTGTCGC | 4.25 PBM z-score against 500 random probes
11 | NRC3_wobSeed125_DR5_A7G_o1 (dsDNA) DNA 1: GCCCTTGCGGGTCACTGACAGGTTATAGCATTTGGAGCGATTGACAGCGTAGAATGAAGG DNA 2: CCTTCATTCTACGCTGTCAATCGCTCCAAATGCTATAACCTGTCAGTGACCCGCAAGGGC | 4.21 PBM z-score against 500 random probes
12 | NRC3_wobSeed85_DR3_G17T_o1 (dsDNA) DNA 1: GCCGTCCAAGGTCAGATAGGTCAGTGAATGCCGAGTGCGATTGACAGCGTAGAATGAAGG DNA 2: CCTTCATTCTACGCTGTCAATCGCACTCGGCATTCACTGACCTATCTGACCTTGGACGGC | 4.18 PBM z-score against 500 random probes
13 | NRC3_wobSeed138_DR5_A6C_o1 (dsDNA) DNA 1: GCGATCCAGGGTCAGCTAGAGGCCAGAGTATGGAAAGCGATTGACAGCGTAGAATGAAGG DNA 2: CCTTCATTCTACGCTGTCAATCGCTTTCCATACTCTGGCCTCTAGCTGACCCTGGATCGC | 4.15 PBM z-score against 500 random probes
14 | NRC3_wobSeed117_DR4_G20T_o1 (dsDNA) DNA 1: GCCGTCAAAGTTCAACTAATGTAACGTAAAGCACGCGCGATTGACAGCGTAGAATGAAGG DNA 2: CCTTCATTCTACGCTGTCAATCGCGCGTGCTTTACGTTACATTAGTTGAACTTTGACGGC | 4.13 PBM z-score against 500 random probes
15 | NRC3_wobSeed58_DR2_A22T_o1 (dsDNA) DNA 1: GCATCGAAAGGTCGTGAGGTGTGTATACAGAAAGGCGCGATTGACAGCGTAGAATGAAGG DNA 2: CCTTCATTCTACGCTGTCAATCGCGCCTTTCTGTATACACACCTCACGACCTTTCGATGC | 4.09 PBM z-score against 500 random probes
16 | NRC3_wobSeed73_DR3_A23G_o1 (dsDNA) DNA 1: GCCAAACTAGGTCACAGAGGTCGAAGTCCGTGCGTAGCGATTGACAGCGTAGAATGAAGG DNA 2: CCTTCATTCTACGCTGTCAATCGCTACGCACGGACTTCGACCTCTGTGACCTAGTTTGGC | 4.06 PBM z-score against 500 random probes
17 | NRC3_wobSeed66_DR2_A22C_o1 (dsDNA) DNA 1: GCAATACAGGGTCACTAGGCCCGAGTAGGTACGAATGCGATTGACAGCGTAGAATGAAGG DNA 2: CCTTCATTCTACGCTGTCAATCGCATTCGTACCTACTCGGGCCTAGTGACCCTGTATTGC | 3.99 PBM z-score against 500 random probes

Row | Binder | binding signal
18 | NRC3_wobSeed130_DR5_T15A_o1 (dsDNA) DNA 1: GCCTCGAAAGGTCGAGCTCAGGTGAGTATACCAAACGCGATTGACAGCGTAGAATGAAGG DNA 2: CCTTCATTCTACGCTGTCAATCGCGTTTGGTATACTCACCTGAGCTCGACCTTTCGAGGC | 3.92 PBM z-score against 500 random probes
19 | NRC3_wobSeed6_DR0_T22C_o1 (dsDNA) DNA 1: GCCCTAGCAGGCCAGGGTCACCCAAGCATTTCGCTTGCGATTGACAGCGTAGAATGAAGG DNA 2: CCTTCATTCTACGCTGTCAATCGCAAGCGAAATGCTTGGGTGACCCTGGCCTGCTAGGGC | 3.89 PBM z-score against 500 random probes
20 | NRC3_wobSeed2_DR0_T12C_o1 (dsDNA) DNA 1: GCCCTAGTTGGCCAAGGTCACACACGCTATAGGTACGCGATTGACAGCGTAGAATGAAGG DNA 2: CCTTCATTCTACGCTGTCAATCGCGTACCTATAGCGTGTGTGACCTTGGCCAACTAGGGC | 3.86 PBM z-score against 500 random probes
21 | NRC3_wobSeed43_DR1_C8A_o1 (dsDNA) DNA 1: GCCCAGAAAGGTGAAAGGTAACTCAGTCTGGTACGCGCGATTGACAGCGTAGAATGAAGG DNA 2: CCTTCATTCTACGCTGTCAATCGCGCGTACCAGACTGAGTTACCTTTCACCTTTCTGGGC | 3.8 PBM z-score against 500 random probes
22 | NRC3_wobSeed5_DR0_T19A_o1 (dsDNA) DNA 1: GCCCTTACGGGTCAAGGTAATAGCACGGGTGGTACGGCGATTGACAGCGTAGAATGAAGG DNA 2: CCTTCATTCTACGCTGTCAATCGCCGTACCACCCGTGCTATTACCTTGACCCGTAAGGGC | 3.77 PBM z-score against 500 random probes
23 | NRC3_wobSeed36_DR1_T25C_o1 (dsDNA) DNA 1: GCCCGACTGGGGCAAAGGTTACCACACTCAGTACGAGCGATTGACAGCGTAGAATGAAGG DNA 2: CCTTCATTCTACGCTGTCAATCGCTCGTACTGAGTGTGGTAACCTTTGCCCCAGTCGGGC | 3.7 PBM z-score against 500 random probes
24 | NRC3_wobSeed142_DR5_G13T_o1 (dsDNA) DNA 1: GCATACCAAGGTTATCGTGAGGTCGTTGATACTAACGCGATTGACAGCGTAGAATGAAGG DNA 2: CCTTCATTCTACGCTGTCAATCGCGTTAGTATCAACGACCTCACGATAACCTTGGTATGC | 3.65 PBM z-score against 500 random probes
25 | NRC3_wobSeed93_DR3_A8G_o1 (dsDNA) DNA 1: GCAGTCAGAGTTCATCTAGGTAACGTAAGATATGCTGCGATTGACAGCGTAGAATGAAGG DNA 2: CCTTCATTCTACGCTGTCAATCGCAGCATATCTTACGTTACCTAGATGAACTCTGACTGC | 3.62 PBM z-score against 500 random probes
26 | NRC3_wobSeed40_DR1_T15C_o1 (dsDNA) DNA 1: GCTAGCCTAGGTCACGGGCCAGTATACCACGCGAACGCGATTGACAGCGTAGAATGAAGG DNA 2: CCTTCATTCTACGCTGTCAATCGCGTTCGCGTGGTATACTGGCCCGTGACCTAGGCTAGC | 3.59 PBM z-score against 500 random probes
27 | NRC3_wobSeed136_DR5_T27A_o1 (dsDNA) DNA 1: GCTAGCCTAGGTCATTCAGGGGCCAGAATAGAAAGCGCGATTGACAGCGTAGAATGAAGG DNA 2: CCTTCATTCTACGCTGTCAATCGCGCTTTCTATTCTGGCCCCTGAATGACCTAGGCTAGC | 3.51 PBM z-score against 500 random probes
28 | NRC3_wobSeed10_DR0_G6C_o1 (dsDNA) DNA 1: GCATCCAAAGGTCGAGGTGAGTATAGAGAAAGGGAAGCGATTGACAGCGTAGAATGAAGG DNA 2: CCTTCATTCTACGCTGTCAATCGCTTCCCTTTCTCTATACTCACCTCGACCTTTGGATGC | 3.47 PBM z-score against 500 random probes
29 | NRC3_wobSeed93_DR3_A18T_o1 (dsDNA) DNA 1: GCAGTCAAAGTTCATCTTGGTAACGTAAGATATGCTGCGATTGACAGCGTAGAATGAAGG DNA 2: CCTTCATTCTACGCTGTCAATCGCAGCATATCTTACGTTACCAAGATGAACTTTGACTGC | 3.45 PBM z-score against 500 random probes
30 | NRC3_wobSeed121_DR5_G21A_o1 (dsDNA) DNA 1: GCCAAACTAGGTCACCGGAAAGTCAAAGTCCGCATGGCGATTGACAGCGTAGAATGAAGG DNA 2: CCTTCATTCTACGCTGTCAATCGCCATGCGGACTTTGACTTTCCGGTGACCTAGTTTGGC | 3.41 PBM z-score against 500 random probes
31 | NRC3_wobSeed89_DR3_C22T_o1 (dsDNA) DNA 1: GCCTATGTAGGTTAAGGGGGTTATTCAGTTTGAAAGGCGATTGACAGCGTAGAATGAAGG DNA 2: CCTTCATTCTACGCTGTCAATCGCCTTTCAAACTGAATAACCCCCTTAACCTACATAGGC | 3.33 PBM z-score against 500 random probes
32 | NRC3_wobSeed137_DR5_T13A_o1 (dsDNA) DNA 1: GCATATGTAGGTAACATCCGGGTCATTCAGGCTATGGCGATTGACAGCGTAGAATGAAGG DNA 2: CCTTCATTCTACGCTGTCAATCGCCATAGCCTGAATGACCCGGATGTTACCTACATATGC | 3.23 PBM z-score against 500 random probes
33 | NRC3_wobSeed120_DR4_A6C_o1 (dsDNA) DNA 1: GCCCGCGTAGGTTACGAGGGGGCATTCAGTGCGAATGCGATTGACAGCGTAGAATGAAGG DNA 2: CCTTCATTCTACGCTGTCAATCGCATTCGCACTGAATGCCCCCTCGTAACCTACGCGGGC | 3.19 PBM z-score against 500 random probes
